Measured values reported in US20250381223A1 (UTC THERAPEUTICS SHANGHAI, published 2025).

Biological target: T1, mesothelin-Fc recombinant protein (human, UniProt Q13421 296-580, limits assumed)
T1 construct: construct not described; also called Meso-Fc; not shown: Fc part
Assay: flow cytometry, T cells with CAR mRNA, mesothelin-Fc + PE-anti-IgG-Fc; Control 0.63
Procedure: (§1) Mesothelin CAR mRNA obtained in Example 26 above was introduced into A549 tumor cells and T cells by electroporation, and the procedures are as follows: A549 tumor cells and T cells were collected and washed 3 times with the Opti-MEM medium. The cell pellet was resuspended in the Opti-MEM medium and the cell concentration was adjusted to 1×10e7 cells/mL. 10 μg of RNA was aliquoted into 1.5-mL EP tubes, 100 μL of T cells or A549 cells were added, followed by mixing well. 100 μL of cells mixed with RNA were added to the BTX electroporation cuvette and slight tapping was performed to avoid air bubbles. Electroporation was performed using a BTX instrument under the following parameters: for T cells: 500 V voltage, 0.7 ms; for A549 tumor cells: 300 V voltage, 0.5 ms. The cells were then transferred to a pre-warmed medium and cultured at 37° C. The binding of mesothelin CART cells to the mesothelin-Fc recombinant protein was determined by FACS staining. […] T cells without CAR molecules served as the control (“Mock”).

T1 sequence (Q13421 other isoform, or with tags, fused parts or gaps limits assumed): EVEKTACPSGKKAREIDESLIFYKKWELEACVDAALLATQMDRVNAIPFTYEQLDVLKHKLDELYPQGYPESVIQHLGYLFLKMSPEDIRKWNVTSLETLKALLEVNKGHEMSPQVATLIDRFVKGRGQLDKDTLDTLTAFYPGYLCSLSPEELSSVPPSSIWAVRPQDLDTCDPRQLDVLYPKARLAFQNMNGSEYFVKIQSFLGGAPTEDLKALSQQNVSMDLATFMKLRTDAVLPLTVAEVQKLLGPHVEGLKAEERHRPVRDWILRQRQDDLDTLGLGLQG

Binder | percent of cells in the gate
anti-mesothelin scFv-M8 (scFv, On mRNA-electroporated T cells as CAR) scFv: DIQLTQSPSSLSASVGDRVTITCRASQSISSSLNWYQQKPGKAPKLLIYAASSLQSGVPSRFSGSGSGTDFTLTISSLQPEDFATYSCQQSYSTPLTFGGGTKVEIKGGGGSGGGGSGGGGSQVHLVESGGGVVQPGRSLRVSCAASGFTFSGYAMYWVRQAPGKGLEYVSAITTNGGSTNYADSVKGRFTISRDNSKNTLYLQMSSLRAGDTAVYYCARGAPGYRGYYMDVWGKGTTVTVSS | 80.8%
M18 (scFv) chain 1: QVQLVQSGGGLVQPGGSLRLSCAASGFTFSSYWMHWVRQAPGKGLVWVSRINSDGSSTSYADSVKGRFTISRDNAKNTLYLQMNSLRAEDTAVYYCVRTGWVGSYYYYMDVWGKGTTVTVSS chain 2: EIVLTQSPGTLSLSPGERATLSCRASQSVSSNYLAWYQQKPGQPPRLLIYDVSTRATGIPARFSGGGSGTDFTLTISSLEPEDFAVYYCQQRSNWPPWTFGQGTKVEIK | 9.53%
anti-mesothelin scFv-M15 (scFv, On mRNA-electroporated T cells as CAR) scFv: DIQLTQSPSSLSASIGDRVTITCRASQGVNSALAWYQQKPGKPPNLLIYDASSLESGVPSRFSGSGSGRDFTLTISSLQPEDFATYYCQQFSSYPLTFGGGTKVDIKGGGGSGGGGSGGGGSQVQLVQSGAEVKKPGASVKVSCKASGYTFTSYYMHWVRQAPGQGLEWMGIINPSGGSTSYAQKFQGRVTMTRDTSTSTVYMELSSLRSEDTAVYYCARAQRGGSVYFDYWGQGTLVTVSS | 48.8%
anti-mesothelin scFv-M6 (scFv, On mRNA-electroporated T cells as CAR) scFv: EIVMTQSPATLSLSPGERATLSCRASQSIGNSLAWYQQKPGQAPRLLIYDVSNRATGIPARFSGSGSGTDFTLTISSLEPEDFAVYYCQHRYSWPLTFGGGTKVEIKGGGGSGGGGSGGGGSQVQLVQSGGGLVKPGGSLRLSCAASGFTFSDYYMSWIRQAPGKGLEWVSYISSSGSTIYYADSVKGRFTISRDNAKNSLYLQMNSLRAEDTAVYYCARDGYRTHNWFDPWGQGTLVTVSS | 83.4%
anti-mesothelin scFv-M7 (scFv, On mRNA-electroporated T cells as CAR) scFv: DIRLTQSPSSLSASLGDRVTITCRASQAISSALAWYQQKPGKAPRLLIYDASTLESGVPSRFSGSGSGTDFTLTISSLQPEDFATYYCQQADSFPLTFGGGTKLEIKGGGGSGGGGSGGGGSQVQLVQSGAEVKKSGESLKISCKGSGYGFGAYWIAWVRQMPGKGLEWMGIIYPGDSRVIYSPYFQGQVTISADKSISTAYLQWSSLKASDTAMYYCARFGGPKFATNWFDIWGQGTTVTVSS | 36.3%
anti-mesothelin scFv-M13 (scFv, On mRNA-electroporated T cells as CAR) scFv: AIRMTQSPSSLSASVGDRVTITCRASQGISNSLAWYQQKPGKAPKLLLYAASRLESGVPSRFSGSGSGTDYTLTISSLQPEDFATYYCQQYYSTPFTFGPGTKLEIKGGGGSGGGGSGGGGSQVQLVQSGAEVKKPGSSVKVSCKTSADTFSANTINWVRQAPGHGLEWMGRIIPSLNIRDYAQEFQGRVTFTADESTNTVYMQLTSLRSEDTAVYYCARDPGSTWSPNQFFPHWGQGTLVTVSS | 71.1%

Biological target: T1, mesothelin-Fc recombinant protein
Assay: flow cytometry, T cells with CAR mRNA, mesothelin-Fc + PE-anti-IgG-Fc; Control 0.97
Procedure: as §1

Binder | percent of cells in the gate
anti-mesothelin scFv-M22 (scFv, On mRNA-electroporated T cells as CAR) scFv: QSALTQPASVSGSPGQSITLSCTGTRRDIGGYEYVSWYQQHPGKAPKLLIFSVNNRPSGVSHRFSGSKSGNTASLTISGLQAEDEAAYFCSSYSSRDTLVLFGGGTKLTVLGGGGSGGGGSGGGGSQVQLVQSGAEVKKPGSSVKVSCKASGGTFSSYAISWVRQAPGQGLEWMGGIIPIFGTANYAQKFQGRVTITADESTSTAYMELSSLRSEDTAVYYCASGRSGSYGLYWGQGTLVTVSS | 80%
anti-mesothelin scFv-M27 (scFv, On mRNA-electroporated T cells as CAR) scFv: EIVLTQSPGTLSLSPGERATLSCRASQPIVASHLAWYQHKPGQAPRLLIYGASTRAAGIPDRFSGSGSGTDFTLTISRLEPEDFAVYFCQQYGISPFTFGPGTKVDIKGGGGSGGGGSGGGGSQVQLVQSGAEVKKPGESLKISCQGSGYSFTDYWIGWVRQAPGQGLEWMGWITPNNGNTNYAPKFQGRVTLTTDTSTSTAYMELRSLTSDDTAVYFCARRGRNSSGYLYYYSMDVWGQGTTVTVSS | 76.3%
anti-mesothelin scFv-M37 (scFv, On mRNA-electroporated T cells as CAR) scFv: DIVMTQTPSSLSASVGDRVTITCRASQGISNYLAWFQQKPGKAPKPLIYAASSLQSGVPSKFSGSGSGTDFTLTISNLQPEDFATYICQQYSSYPITFGQGTRLEIKGGGGSGGGGSGGGGSQLQLQESGPGLVKPSETLSLTCAVSGGSISPYYWTWIRQSPGKAMEWMGYIHYSGRTNYNPSLESRATFSVDTSKNQISLKLNSVTAADTAVYYCTKVGDPGLFDYWGPGTLVTVSS | 74.2%
anti-mesothelin scFv-M24 (scFv, On mRNA-electroporated T cells as CAR) scFv: QPVLTQPPSASGTPGQRVTISCSGSSSNIGSNYVYWYQQFPGTAPKLLIYMNNQRPSGVPDRFSGSKSGTSASLAISGLRSEDEADYYCAARDDSLSGYVTFGGGTKLTVLGGGGSGGGGSGGGGSEVHLVESGGGLVQPGGSLRLSCAASGFTFSSYAMSWVRQAPGKGLEWVSAISGSGGSTYYADSVKGRFTISRDNSKNTLYLQMNSLKTEDTAVYYCTRGVATFDYWGQGTLVTVSS | 93.6%
anti-mesothelin scFv-M20 (scFv, On mRNA-electroporated T cells as CAR) scFv: AIQMTQSPSSLSASVGNRVTITCRASQGISSAVAWYQQKPGKPPKLLISYASSLESGVPSRFSGSGSGTDFSLTISSLQPEDFATYFCQQFNSYPLTFGGGTKVEIKGGGGSGGGGSGGGGSQVQLVQSGAEVRKPGESLKISCKGSGYSFRDSWIAWVRQMPGQGLEWMGIIFPGDSNPIYSPSFQGQVTISADTSISTTFLQWRSLKASDSAIYYCARHAAWGAGWFDPWGQGTLVTVSS | 75.6%
anti-mesothelin scFv-M31 (scFv, On mRNA-electroporated T cells as CAR) scFv: QSALTQPPSASGSPGQSVTISCTGTSSDIGGYNSVSWYQQHPGKAPKLIIYGVSRRPSGVPDRFSGSKSANTASLTVSGLQAVDEADYYCSSYGGSNNLLFGGGTKLTVLGGGGSGGGGSGGGGSEVHLVESGGGLAQPGGSLRLSCAASGFSFSSSWMAWVRQAPGKGLEWVANIKQDGSSQYYVDSVKGRFTISRDNAKNSLSLQMNSLRAEDTAVYYCARDIWYSIDYWGQGTLVTVSS | 67.9%
anti-mesothelin scFv-M28 (scFv, On mRNA-electroporated T cells as CAR) scFv: QSALTQPPSASGSPGQSVTISCSGTSSDVGGYNFVSWYQHHPGKAPKLMIYEVSKRPSGVPDRFSGSKSGNTASLTVSGLQAEDEADYYCSSYAGRNNPYLFGTGTKLTVLGGGGSGGGGSGGGGSQLQLQESGAEVKKPGSSVKVSCKASGGTFSSYAISWVRQAPGQGLEWMGGIIPIFGTANYAQKFQGRVTITADESTSTAYMELSSLRSEDTAVYYCARDLGGYSYGHGLDYWGQGTLVTVSS | 82.8%
anti-mesothelin scFv-M32 (scFv, On mRNA-electroporated T cells as CAR) scFv: DIRMTQSPSSLSASVGDRVTVTCQASEDINNSLNWYQQKPGKAPQLLIYDASDLETGVPSRFSGRGSGRDFTLTISSLQPEDFATYYCQQLNSYPLTFGGGTKLEIKGGGGSGGGGSGGGGSQVQLVQSGAEVKKPGASVKVSCKASGFTFIGYYLHWVRQAPGQGLEWMGIINPSGGRTSMAQKFQGRVSMTTDTSTGTVYLDLGRLGSDDTAVYYCARADNWNAGSMDVWGNGTTVTVSS | 84.1%
